Data published in the nanobody polyreactivity screen of Harvey et al. (2022).

Test: yeast display, Sf9 membrane polyspecificity reagent, FACS + sequencing; frameworks hold sequencing errors
In short: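 Nanobodies came from a synthetic yeast display library in Saccharomyces cerevisiae BJ5465, induced with galactose for 36–48 hours and stained for 1 hour at 4 °C with 10% biotinylated, detergent-solubilized Sf9 membrane reagent. Cells were enriched on streptavidin microbeads and then FACS-sorted, with low and high (top ~1%) gates set on anti-HA fluorescence for expression and streptavidin fluorescence for reagent binding. Each polyreactivity label reflects the gate a clone came from. Genes were amplified by colony PCR, sequenced by MiSeq 2 × 250 and filtered by CDR length.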

Row | Sequence | polyreactivity (PSR sort gate)
1 | QVQLVESGGGLVQAGGSLRLSCAASGLIFYDNMGWYRQAPGNERELVAAITVSGGATYYADSVKGRFTISRDNAKNTVYLQMNSLKPEDTAVYYCARELLSPTYQRWYYYWGQGTQVTVSS | low polyreactivity
2 | QVQLVESGGGLVQAGGSLRLSCAASGLIFYENAMGWYRQAPGKERELVAAINYDGDSTYYADSVKGRFTISRDNAKNTVYLQMNSLKPEDTAVYYCAADGGWVLFWMDYWGQGTQVTVSS | low polyreactivity
3 | QVQLVESGGGLVQAGGSLRLSCAASGLIFYGNAMGWYREAPGKERELVAAISRRGGRTYYADSVKGRYTISRDNAKNTVYLQMNSLKPEDTAVYYCAAGVPKNGQAGYDYWGQGTQVTVSS | high polyreactivity
4 | QVQLVESGGGLVQAGGSLRLSCAASGLIFYGYVMGWYRQAPGKERELVAGISRNSGSTYYADSVKGRFTISRDNAKTTVYLQMNSLKPEDTAVYYCAKAYYRRYAAPGYDYWGQGTQVTVSS | low polyreactivity
5 | QVQLVESGGGLVQAGGSLRLSCAASGLIFYLYAMGWYRQAPGKERELVAAITSGGGSTYYADSVKGRFTISRDNAKNTVYLQMNSLKPEDTAVYYCAARLVLYITVVYEDDYWGQGTQVTVSS | low polyreactivity
6 | QVQLVESGGGLVQAGGSLRLSCAASGLIFYLYTMGWYRQAPGQERELVAAISRSGGSTYYADSVKGRFTISRDNAKNTVYVQMNSLKPEDPAVYYCAALRSRSTYNDYNYWGQGTQVTVSS | high polyreactivity
7 | QVQLVESGGGLVQAGGSLRLSCAASGLIFYRNAMGWYRQAPGKERELVAAIRFSTGSTYYADSVKGRFTISRDNAKNTVYLQMNSLKPEDTAVYYCAADRRYYWYNYWGQGTQVNVSS | high polyreactivity
8 | QVQLVESGGGLVQAGGSLRLSCAASGLIFYRNAMGWYRQAPGKERELVAAISVSGGRTYYADSVKGRFTISRDNAKNTVYLQMNSLKPEDTAVYYCAAYGTTRMDYWGQGTQVTVSS | high polyreactivity
9 | QVQLVESGGGLVQAGGSLRLSCAASGLIFYRYAMGWYRQAPGKERELVAAISARGSSTYYADSVKGRFTISRDNAKNTVYLQMNSLKPEDTAVYYCAAGATGTSYYGGDYWGQGTQVTVSS | high polyreactivity
10 | QVQLVESGGGLVQAGGSLRLSCAASGLIFYRYTMGWYRQAPGKERELVAAITSTGTSTYYADSVKGRFTISRDNAKNTVYLQMNSLKPEDTAVYYCAARYIARGKWDYDYWGQGTQVTVSS | high polyreactivity
11 | QVQLVESGGGLVQAGGSLRLSCAASGLIFYRYVMGWYRQAPGKEREFVAAISSGGSTYYADSVKGLFTISRDNAKNTVYLQMNSLKPEDTAVYYCNTLSQVFASRAPKFDYWGQGTQVTVSS | high polyreactivity
12 | QVQLVESGGGLVQAGGSLRLSCAASGLIFYVYAMGWYRQAPGKERELVATISSSGGSTYYADSVKGRFTISRDNAKNTVYLQMNSLKPEDTAVYYCAARWSHYRTGWGDTSYHYYYWGQGTQVTVSS | high polyreactivity
13 | QVQLVESGGGLVQAGGSLRLSCAASGLIFYYYAMGWYRQAPGKERELVAAITAIGDRTYYADSVKGRFTISRDNAKNTVYLQMNSLKPEDTAVYYCAAGWLLYNRYGIITYDYWGQGTQVTVSS | high polyreactivity
14 | QVQLVESGGGLVQAGGSLRLSCAASGLIFYYYAMGWYRQAPGKERELVAAITTGGGTYYADSVKGRFTISRDNAKNTVYLQMNSLKPEDTAVYYCAVYYRSYWGYEYWGQGTQVTVSS | high polyreactivity
15 | QVQLVESGGGLVQAGGSLRLSCAASGLIIDGYAMGWSRQAPGKERELVATITVSGTSTYYADSVKGRFTISRDNAKNTVYLQMNSLKPEDTAVYYFATDRNYGYYFVEYDHDYWGQGTQVTVSS | low polyreactivity
16 | QVQLVESGGGLVQAGGSLRLSCAASGLIIRYYAMGWYRQAPGKERELVAAISYNGGSTYYADSVKGRFTISRDNAKNTVYLQMNSLKPEDTAVYYCAARGRYRIGPGRYGKRYDYWGQGTQVTVSS | high polyreactivity

Row | Sequence | polyreactivity (PSR sort gate)
17 | QVQLVESGGGLVQAGGSLRLSCAASGLILDGYAMGWYRQAPGKERELVAAITRSGGRTYYADSVKGRFTISRDNAKNTVYLQMKSLKPEDPAVYYCAALGWSGRYRYDYWGQGTQVTVSS | high polyreactivity
18 | QVQLVESGGGLVQAGGSLRLSCAASGLILGVYTMGWYRQAPGKEREFVASINYGGGSTYYADSVKGRFTISRDNAKNTVYLQMNSLKPEDTAVYYCNARSRWGGTRLYSYDYWGQGTQVTVSS | low polyreactivity
19 | QVQLVESGGGLVQAGGSLRLSCAASGLILGYYAMGWYRQAPGKERELVAAISSTGSTNYADSVKGRFTISRDNAKNTVYLQMNSLKPEDTAVYYCAAVPPRKDYQHMDYWGQGTQVTVSS | low polyreactivity
20 | QVQLVESGGGLVQAGGSLRLSCAASGLILPYYAMGWYSQARGKERELVAAISRTGGRTSYADSVKVRFTISRDNAKNTVYLLINSLKPEDTAVYYCAAVGQSGGRRYDYWGQGTQVTVSS | high polyreactivity
21 | QVQLVESGGGLVQAGGSLRLSCAASGLILPYYTMGWYRQAPGTERELVAAITWGGDSTYYADSVKGRFTISRDNAKNTVYLQMNRLKPEDTAVFYCAAYPQRRFYWQYRYDYWGQGTQVTGSS | high polyreactivity
22 | QVQLVESGGGLVQAGGSLRLSCAASGLILQYYVMGWYRQAPGKERELVAAITRSGGGTYYADSVKGRFTISRDKAKNTVYLQMNSLIPEDTAVYYCAAQRQYGKFDYWGQGTQVTVSS | high polyreactivity
23 | QVQLVESGGGLVQAGGSLRLSCAASGLILSAYAMGWYRQAPGKERELVAAISGSGGRTYYADSVKGRFTISRDNAKNTVYLQMNSLKPEDTAVYYCAAPYTYVGSYTYNYWGQGTQVTVSS | high polyreactivity
24 | QVQLVESGGGLVQAGGSLRLSCAASGLILSDYAMGWYRQAPGKERELVATITSVGTTKYADSVKGRFTISRDNAKNTVYLQMNSLKPEDTAVYYCAVEWYQGTTYSISYLYDYWGQGTQVTVSS | low polyreactivity
25 | QVQLVESGGGLVQAGGSLRLSCAASGLILVPNTMGWYRQAPGKERELVAAISYSGGGTYYADSVKGRFTISRDNAKNTVYLQMNSLKAEDTAVYYCAAYVKRESAPYGYWGHGTQVTVSS | low polyreactivity
26 | QVQLVESGGGLVQAGGSLRLSCAASGLILYYYAMGWYRQAPGKEREFVAAISGRGGSTYYADSVKGRFTISRDNAKNTVYLQMNSLKPEDTAVYYCAARVWYKYDHWGQGTQVTVSS | high polyreactivity
27 | QVQLVESGGGLVQAGGSLRLSCAASGLILYYYDMGWYRQAPGKERELVAAISWNGDDTYYADSVKGRFTISRDNAKNTVYLQMNSLKPEDTAVYYCAAEGPPQTDDYWGQGTQVTVSS | high polyreactivity
28 | QVQLVESGGGLVQAGGSLRLSCAASGLISYAYAMGWYRQAPGKERELVAAIRSSGSTYYADSVKGRFTISRDNAKNTVYLQMNSLKPEDTAVYYCAAYVWRRGDGYYYWGQGTQVTVSS | high polyreactivity
29 | QVQLVESGGGLVQAGGSLRLSCAASGLISYHYAMGWYRQAPGKERELVASISYTGGSTFYADSVKGRFTISRDNAKNTVYLQMNSLKPEDTAVYYCAAYRIWRPSYYYWGQGTQVTVSS | high polyreactivity
30 | QVQLVESGGGLVQAGGSLRLSCAASGLISYRNAMGWYRQAPGKERELVAAISSDGSTYYADSVKGRFTISRDNAKNTVYLQMNSLKPVDTAVYYCAADYREFDAYGAARTLDFDYWGQGTQVTVSS | low polyreactivity
31 | QVQLVESGGGLVQAGGSLRLSCAASGLIYVGNAMGWYRQAPGKERELVAAISSRGGRTYYADSVKGRFTISRDNAKNSVYLQMNSLKPEDSAVYYCNAANSQWGFEYWGQGTQVTVSS | high polyreactivity
